According to publication PMC10313822, “Disruption of ER ion homeostasis maintained by an ER anion channel CLCC1 contributes to ALS-like pathologies” (Cell Research, 2023):

Biological target: the molecule itself
Assay: SEC; Superose 6 Increase, TBS (50 mM Tris-HCl pH 7.4, 150 mM NaCl) with 0.025% DDM and 2 mM DTT; size estimated from standard markers

Protein | binding result
purified full-length mouse CLCC1, His-tagged (natural protein, UniProt Q99LI2 19-539, looked up, CLCC1, mouse, full length (NM_145543.2; 539 residues by the printed limits of the C-terminal polypeptide 355-539); The predicted signal peptide may be removed in insect cells; also called mCLCC1; WT mCLCC1; source: High Five insect cells (baculovirus), purified (Ni-NTA, Superose 6 Increase); not shown: His10, C-terminal, kept) HDDDWIDPTDMLNYDAASGTMRKSQVRSGTSEKKEVSPDSSEAEELSDCLHRLDSLTHKVDSCEKKKMKDYESQSNPVFRRYLNKILIEAGKLGLPDENKVEMRYDAEILLSRQTLLEIQKFLSGEEWKPGALDDALSDILINFKCHDSEAWKWQFEDYFGVDPYNVFMVLLCLLCLVVLVATELWTYVRWYTQMKRIFIISFLLSLAWNWIYLYKMAFAQHQANIAGMEPFDNLCAKKMDWTGSLWEWFTSSWTYKDDPCQKYYELLIVNPIWLVPPTKALAITFTNFVTEPLKHIGKGAGEFIKALMKEIPVLLQIPVLAILALAVLSFCYGAGRSVPMLRHFGGPDREPPRALEPDDRRRQKGLDYRLHGGAGDADFSYRGPAGSIEQGPYDKMHASKRDALRQRFHSGNKSPEVLRAFDLPDTEAQEHPEVVPSHKSPIMNTNLETGELPGESTPTEYSQSAKDVSGQVPSAGKSSPTVDKAQLKTDSECSPPGGCPPSKEAAVAAHGTEPVSSPCG | binds
C350F mutant mouse CLCC1, purified (natural protein, UniProt Q99LI2 19-539, looked up, CLCC1, mouse, full length, with C350F; also called C350F mCLCC1; source: High Five insect cells (baculovirus), purified (Ni-NTA, Superose 6 Increase)) HDDDWIDPTDMLNYDAASGTMRKSQVRSGTSEKKEVSPDSSEAEELSDCLHRLDSLTHKVDSCEKKKMKDYESQSNPVFRRYLNKILIEAGKLGLPDENKVEMRYDAEILLSRQTLLEIQKFLSGEEWKPGALDDALSDILINFKCHDSEAWKWQFEDYFGVDPYNVFMVLLCLLCLVVLVATELWTYVRWYTQMKRIFIISFLLSLAWNWIYLYKMAFAQHQANIAGMEPFDNLCAKKMDWTGSLWEWFTSSWTYKDDPCQKYYELLIVNPIWLVPPTKALAITFTNFVTEPLKHIGKGAGEFIKALMKEIPVLLQIPVLAILALAVLSFFYGAGRSVPMLRHFGGPDREPPRALEPDDRRRQKGLDYRLHGGAGDADFSYRGPAGSIEQGPYDKMHASKRDALRQRFHSGNKSPEVLRAFDLPDTEAQEHPEVVPSHKSPIMNTNLETGELPGESTPTEYSQSAKDVSGQVPSAGKSSPTVDKAQLKTDSECSPPGGCPPSKEAAVAAHGTEPVSSPCG | binds
